{
  "source": "paper doi:10.1101/838888",
  "biological_target": "superfolder GFP with strained-cyclooctyne pyrrolysine at residue 204 (sfGFP^204SCO) (Aequorea victoria) [GFP: P42212]",
  "assay": "FRET or BRET",
  "data": [
    {"substance": "Venus with p-azido-L-phenylalanine at residue 204 (Venus^204azF) (from UniProt P42212 2-238)", "values": [
      {"measurement": "FRET efficiency", "value": 86.8, "unit": "%"}
    ]}
  ]
}
